# The DeepSol protein solubility set
# Assay: soluble on expression in E. coli; label from the status in PepcDB or PDB records
row,Sequence,soluble on expression in E. coli
1,MGSDKIHHHHHHMKYYFAPLEGITGYIYRNAYEKFFGGIDKYFTPFIVPTSSKSLTSRELKDVLPENNKVTFLVPQILTNDANKFIFTTEKLMNLGYSEVNLNLGCPSGTVVSKGRGAGFLKKRQELDEFLEKIFSKSPAKISIKTRIGKDSPDEFYELIKIFNKYPLEELIIHPRIQTDFYNNKPNMKVFKDALELSKSTVCYNGDIFQSNDYIKLIEEFSNLGVVMLGRGIISNPNIIKKINSNNVLEKEVLKKFHDAIYEEYQDILSGEKNVLFKMKEIWFYMIHLFKDSDKFAKKIRKANRLRDYEAIISALFGEFDLI,not soluble
2,MEEELQHSHCVNCVSRRCMTRPEPGISCDLIGCPLVCGAVFHSCKADEHRLLCPFERVPCLNSDFGCPFTMARNKVAEHLEMCPASV,soluble
3,MSLSGSDYCFSTLGCSELSLHETADLTERHGIANVELRALSGTIDLIAALTAEFGTPARFAAFLSERNLRVAALNTSMRLFGSDSLSEIEPFIDWAEAANIAYLRIFDGGKKIGPEDLDRSAALLDNWQAVRQTRGLNVDLMIETHDALSDFEQLLTFIEQVPAARILWDTHHTWAKGSNLKMVWRQIERNVVHLHVKDSVMDSDRERRYVLPGQGEFPISELLSLILPNERQIPLSLEWERHWHPQLPPLADALKAAHSWWRQGVSEGHHHHHH,soluble
4,MSLKSIAKAQNDFTIFKFGDSEIRVINKCGEPWFVAKDVCDALALTNSRKALTALDDDEKGVTLSYTLGGEQNLSIVSESGMYTLVLRCRDAVNKGSVPHKFRKWVTAEVLPSIRKHGEYVKGKKTTVEERTPLRDAVNMLVGKKGLRNDDAYNMVHQRFGIDSIDELSIEQIPLAVEYIHRVVLEGEFIGKQEKSTNELSAKEANSLVWLWDYANRSQALFRELYPALKQIQSNYSGRCYDYGHEFSYVIGMARDVLINHTRDVDINEPDGPTNLSAWMRLKNKELPPSPHHYEGHHHHHH,not soluble
5,MAERLLQSMSRVAGRCHPDCVKASDEQEDYHASQNAALVAVNLISSARLILKLDAEFTEYSAQFLMDNAGKEDDPGEVDQQRNQVTTENCLRYLAENVWTKKENGQGGMDQQRPVLTVKDCLELAFKKGLPRREHWAHLGCTFKAPPFACQIPRVPVKGEVVEVKTFDEAFKLLVHQPIGAKLHLFSPQIDNVGEGVYKGLTTGNETHYVGLRDVLIASVEEFEGDSVAIVKICYKKKLSFIKVSLSVRFLSVAHDGDKSKFIAPTGLLVDFCVPRLSIN,soluble
6,VRWIGLSTGLVSAMLVAGLVACGSNSPASSPAGPTQGARSIVVFAAASLQSAFTQIGEQFKAGNPGVNVNFAFAGSSELATQLTQGATADVFASADTAQMDSVAKAGLLAGHPTNFATNTMVIVAAAGNPKKIRSFADLTRPGLNVVVCQPSVPCGSATRRIEDATGIHLNPVSEELSVTDVLNKVITGQADAGLVYVSDALSVATKVTCVRFPEAAGVVNVYAIAVLKRTSQPALARQFVAMVTAAAGRRILDQSGFAKP,not soluble
7,MKRVEDWIKQAERDLEEARYAKSGGYYELACFLSQQCAEKAVKGLLQFQGIEKRGHSISHLLTNPPADILQCATFLDKQYTPSRYPDVYYEGAPYEYYTERDADECINCAIRILNWVKGQIK,soluble
8,ASDHQTQAGKPQPLNPKIIIFEQENFQGHSHELSGPCPNLKETGMEKAGSVLVQAGPWVGYEQANCKGEQFVFEKGEYPRWDSWTSSRRTDSLSSLRPIKVDSQEH,soluble
9,MLLNEIPWTIPLTVRLSNGLTHTFASVYEALDFLENEWPLRKGERYERAVRTCRRALNRMTPAAVAREAFIAACLEAGMPLVMAPPAREPQGDTVKAAHTA,not soluble
10,MGSDKIHHHHHHLEISLNEIIDYYAKADVSFVGAFGERVSPQLKVLDRHTNPAGGGLVIPFSGSACFTFDGKPYVIEPGMVVHAGPGMRLSKEVIGDREWEYAVIHYHIPQHERDEYPLFHKDFSLAHGRSAKVPHLVRQILDIQSIPGAAAKFQTKVLFLSLLQEIFTAACGQPGQENSKLIEEAMGYIRLNYADELTVQKVADEFSVERRQFSYLFKRHTGMSPIHYLIECRISKAKELLGSPGCSVKQVAEWVGYTDSLYFSKAFKKYTGVSPSEYREGFAL,not soluble
11,MKVLLIIPAYNEEENILRTIASIETFKQEVTHFQHELDYVVINDGSTDGTKQILEANQINAIHLVLNLGIGGAVQTGYKYALENEYDVAVQFDGDGQHDINSLPILLEPLAEGKCDFSIGSRFIPGNEASFQSTKMRRFGIRLLSFCIRMASGKTIYDVTSGYRAGNRKVIAFFAKRYPTNYPEPESIVHLIKKRFVIVERPVNMMERLGGVSSIRALASVKYMLEVGSAILIAAFMKEGDLEHHHHHH,soluble
